Positions of bridges follow the written chain, without caps; N, C: chain ends.
Key:
[1] = biological target: T1, human IgG4 (human, UniProt P01861-1 1-327 = IgG part); experiment: fluorescence anisotropy; pH 7.4, 0.01 M Tris-HCl
T1 construct: Calbiochem; plasma IgG4 in anisotropy studies, myeloma-derived (cat. 400126) in batch/column studies; also called hIgG4
Method: (§1) All measurements were performed in 384 well microplates with 20 nM fluorescein-labeled peptide and various concentrations of the IgG isoform in a volume of between 10 and 20 μl using a Tecan Polarion fluorescence polarization plate reader. All binding buffers included 0.01% (v/v) Tween 20 to prevent peptide adsorption to the microplate. The binding mixture was equilibrated for 10 minutes in the microplate at 30° C. prior to performing the measurement.

[2] = biological target: T2, human IgG1 (human, UniProt P01857-1 1-330 = IgG part); experiment: fluorescence anisotropy; pH 7.4, 0.01 M Tris-HCl
T2 construct: Calbiochem; human plasma IgG1 in anisotropy studies, myeloma-derived (cat. 400120) in batch/column studies; also called hIgG1
Method: as §1

[3] = biological target: T3, human IgG2 (human, UniProt P01859-1 1-326 = IgG part); experiment: fluorescence anisotropy; pH 7.4, 0.01 M Tris-HCl
T3 construct: Calbiochem; plasma IgG2 in anisotropy studies, myeloma-derived (cat. 400122) in batch/column studies; also called hIgG2
Method: as §1

[4] = biological target: T1, human IgG4; experiment: fluorescence anisotropy; pH 7.4 PBS
Method: as §1

[5] = biological target: T2, human IgG1; experiment: fluorescence anisotropy; pH 7.4 PBS
Method: as §1

[6] = biological target: T3, human IgG2; experiment: fluorescence anisotropy; pH 7.4 PBS
Method: as §1

[7] = biological target: T4, Human IgG Fc fragment isolated from plasma (human); experiment: fluorescence anisotropy; pH 8.0, 0.05 M Tris-HCl, 0.2 M NaCl
T4 construct: domain: Fc fragment; also called human Fc; Fc protein
Method: as §1

[8] = biological target: T2, human IgG1; experiment: fluorescence anisotropy; pH 5.7, 0.05 M NaCl
Method: as §1

[9] = biological target: T2, human IgG1; experiment: fluorescence anisotropy; pH 7.4 PBS, 15% ethylene glycol
Method: as §1

[10] = biological target: T2, human IgG1; experiment: fluorescence anisotropy; pH 5.7, 15% ethylene glycol
Method: as §1

T2 sequence (P01857 other isoform, or with tags, fused parts or gaps): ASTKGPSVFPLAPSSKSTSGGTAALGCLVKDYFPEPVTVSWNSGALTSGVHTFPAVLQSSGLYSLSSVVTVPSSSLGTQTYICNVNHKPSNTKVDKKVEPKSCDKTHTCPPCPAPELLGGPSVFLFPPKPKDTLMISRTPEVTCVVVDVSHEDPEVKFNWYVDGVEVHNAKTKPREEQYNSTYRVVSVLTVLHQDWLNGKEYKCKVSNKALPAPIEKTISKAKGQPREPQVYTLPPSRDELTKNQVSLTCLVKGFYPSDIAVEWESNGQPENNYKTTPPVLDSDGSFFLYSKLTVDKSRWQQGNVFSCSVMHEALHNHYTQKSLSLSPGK
T1 sequence (P01861 other isoform, or with tags, fused parts or gaps): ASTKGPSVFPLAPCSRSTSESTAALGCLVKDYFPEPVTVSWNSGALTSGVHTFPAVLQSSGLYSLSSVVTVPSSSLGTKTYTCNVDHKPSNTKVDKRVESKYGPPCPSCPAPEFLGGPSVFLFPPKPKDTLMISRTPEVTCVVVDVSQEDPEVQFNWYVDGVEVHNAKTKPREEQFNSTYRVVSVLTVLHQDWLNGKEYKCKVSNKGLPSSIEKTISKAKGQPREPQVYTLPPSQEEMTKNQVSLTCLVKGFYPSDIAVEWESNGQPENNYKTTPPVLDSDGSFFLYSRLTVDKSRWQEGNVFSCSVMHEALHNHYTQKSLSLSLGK
T3 sequence (P01859 other isoform, or with tags, fused parts or gaps): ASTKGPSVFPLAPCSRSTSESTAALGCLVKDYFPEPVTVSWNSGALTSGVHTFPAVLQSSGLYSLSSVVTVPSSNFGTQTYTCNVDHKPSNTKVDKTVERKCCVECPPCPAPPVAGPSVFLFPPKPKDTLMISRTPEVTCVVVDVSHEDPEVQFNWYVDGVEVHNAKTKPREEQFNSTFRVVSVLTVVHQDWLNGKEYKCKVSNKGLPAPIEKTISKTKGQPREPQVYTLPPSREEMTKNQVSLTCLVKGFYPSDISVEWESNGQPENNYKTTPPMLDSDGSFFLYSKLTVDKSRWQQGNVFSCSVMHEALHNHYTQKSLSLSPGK

- Kd [1]: 1900 nM
- Kd [2]: 400 nM
- Kd [3]: 1800 nM
- Kd [4]: 1900 nM
- Kd [5]: 1400 nM
- Kd [6]: 1100 nM
- Kd [7]: 2500 nM
- Kd [8]: 300 nM
- Kd [9]: 3600 nM
- Kd [10]: 80 nM
B1: DX249 (peptide)
peptide: Ac-GDDHMCVYTTWGELIWCDNHEPGPEGGGK-NH2
modifications: disulfide 6-17 (inferred)
notes: Synthetic disulfide-cyclised peptide
